Measured values as given in patent publication US20150111814A1.

Biological target: HIV-1 BaL envelope protein spike (Env) on virions (HIV-1 BaL strain)
Experiment: cell-based or functional assay

Substance: MVN-DAVEI8 (microvirin-linker-MPER fusion)
- EC50 of virolysis (% p24 release): 780 nM
